B1: Pistol ribozyme (parent)
chain: GGGUCGUUGUUCCAUAAUCGCGUGGAUAUGGCACGCAAGUUUCUACCGGGCACCGUAAAUGUCCGACUGGAGCCGUUCGGGCGGCUAUAAACAGACCUCAGGCCCGAAGCGUGGCGGCACCUGCCGCCGGUGGUAAAAAAGAUCGGAAGAGCACACGUCU

Variants of: B1
Experiment: aptazyme ON/OFF ratio, guanine; higher = stronger switching; co-transcriptional cleavage with and without guanine

Row | Variant | aptazyme ON/OFF ratio
1 | GGGUCGGCUGUCAAUAAUCGCGUGGAUAUGGCACGCAAGUUUCUACCGGGCACCGUAAAUGUCCGACUGGAGCCGUUCGGGCGGCUAUAAACAGACCUCAGGCCCGAAGCGUGGCGGCACCUGCCGCCGGUGGUAAAAAAGAUCGGAAGAGCACACGUCU [U7G U8C G9U U10G C13A] | 1.24
2 | GGGUCGGCUGUCUAUAAUCGCGUGGAUAUGGCACGCAAGUUUCUACCGGGCACCGUAAAUGUCCGACUGGAGCCGUUCGGGCGGCUAUAAACAGACCUCAGGCCCGAAGCGUGGCGGCACCUGCCGCCGGUGGUAAAAAAGAUCGGAAGAGCACACGUCU [U7G U8C G9U U10G C13U] | 1.24
3 | GGGUCGGCUGUCGAUAAUCGCGUGGAUAUGGCACGCAAGUUUCUACCGGGCACCGUAAAUGUCCGACUGGAGCCGUUCGGGCGGCUAUAAACAGACCUCAGGCCCGAAGCGUGGCGGCACCUGCCGCCGGUGGUAAAAAAGAUCGGAAGAGCACACGUCU [U7G U8C G9U U10G C13G] | 1.27
4 | GGGUCGGCUGAACAUAAUCGCGUGGAUAUGGCACGCAAGUUUCUACCGGGCACCGUAAAUGUCCGACUGGAGCCGUUCGGGCGGCUAUAAACAGACCUCAGGCCCGAAGCGUGGCGGCACCUGCCGCCGGUGGUAAAAAAGAUCGGAAGAGCACACGUCU [U7G U8C G9U U10G U11A C12A] | 1.3
5 | GGGUCGGCUGAGCAUAAUCGCGUGGAUAUGGCACGCAAGUUUCUACCGGGCACCGUAAAUGUCCGACUGGAGCCGUUCGGGCGGCUAUAAACAGACCUCAGGCCCGAAGCGUGGCGGCACCUGCCGCCGGUGGUAAAAAAGAUCGGAAGAGCACACGUCU [U7G U8C G9U U10G U11A C12G] | 1.34
6 | GGGUCGGCUGAUCAUAAUCGCGUGGAUAUGGCACGCAAGUUUCUACCGGGCACCGUAAAUGUCCGACUGGAGCCGUUCGGGCGGCUAUAAACAGACCUCAGGCCCGAAGCGUGGCGGCACCUGCCGCCGGUGGUAAAAAAGAUCGGAAGAGCACACGUCU [U7G U8C G9U U10G U11A C12U] | 1.1
7 | GGGUCGGCUGACUAUAAUCGCGUGGAUAUGGCACGCAAGUUUCUACCGGGCACCGUAAAUGUCCGACUGGAGCCGUUCGGGCGGCUAUAAACAGACCUCAGGCCCGAAGCGUGGCGGCACCUGCCGCCGGUGGUAAAAAAGAUCGGAAGAGCACACGUCU [U7G U8C G9U U10G U11A C13U] | 1.12
8 | GGGUCGGCUGACAAUAAUCGCGUGGAUAUGGCACGCAAGUUUCUACCGGGCACCGUAAAUGUCCGACUGGAGCCGUUCGGGCGGCUAUAAACAGACCUCAGGCCCGAAGCGUGGCGGCACCUGCCGCCGGUGGUAAAAAAGAUCGGAAGAGCACACGUCU [U7G U8C G9U U10G U11A C13A] | 1.08
9 | GGGUCGGCUGACGAUAAUCGCGUGGAUAUGGCACGCAAGUUUCUACCGGGCACCGUAAAUGUCCGACUGGAGCCGUUCGGGCGGCUAUAAACAGACCUCAGGCCCGAAGCGUGGCGGCACCUGCCGCCGGUGGUAAAAAAGAUCGGAAGAGCACACGUCU [U7G U8C G9U U10G U11A C13G] | 1.07
10 | GGGUCGGCUGCAGAUAAUCGCGUGGAUAUGGCACGCAAGUUUCUACCGGGCACCGUAAAUGUCCGACUGGAGCCGUUCGGGCGGCUAUAAACAGACCUCAGGCCCGAAGCGUGGCGGCACCUGCCGCCGGUGGUAAAAAAGAUCGGAAGAGCACACGUCU [U7G U8C G9U U10G U11C C12A C13G] | 1.45
11 | GGGUCGGCUGCAUAUAAUCGCGUGGAUAUGGCACGCAAGUUUCUACCGGGCACCGUAAAUGUCCGACUGGAGCCGUUCGGGCGGCUAUAAACAGACCUCAGGCCCGAAGCGUGGCGGCACCUGCCGCCGGUGGUAAAAAAGAUCGGAAGAGCACACGUCU [U7G U8C G9U U10G U11C C12A C13U] | 1.37
12 | GGGUCGGCUGCAAAUAAUCGCGUGGAUAUGGCACGCAAGUUUCUACCGGGCACCGUAAAUGUCCGACUGGAGCCGUUCGGGCGGCUAUAAACAGACCUCAGGCCCGAAGCGUGGCGGCACCUGCCGCCGGUGGUAAAAAAGAUCGGAAGAGCACACGUCU [U7G U8C G9U U10G U11C C12A C13A] | 1.23
13 | GGGUCGGCUGUAUAUAAUCGCGUGGAUAUGGCACGCAAGUUUCUACCGGGCACCGUAAAUGUCCGACUGGAGCCGUUCGGGCGGCUAUAAACAGACCUCAGGCCCGAAGCGUGGCGGCACCUGCCGCCGGUGGUAAAAAAGAUCGGAAGAGCACACGUCU [U7G U8C G9U U10G C12A C13U] | 1.24
14 | GGGUCGGCUGAUAAUAAUCGCGUGGAUAUGGCACGCAAGUUUCUACCGGGCACCGUAAAUGUCCGACUGGAGCCGUUCGGGCGGCUAUAAACAGACCUCAGGCCCGAAGCGUGGCGGCACCUGCCGCCGGUGGUAAAAAAGAUCGGAAGAGCACACGUCU [U7G U8C G9U U10G U11A C12U C13A] | 1.21
15 | GGGUCGGCUGAUUAUAAUCGCGUGGAUAUGGCACGCAAGUUUCUACCGGGCACCGUAAAUGUCCGACUGGAGCCGUUCGGGCGGCUAUAAACAGACCUCAGGCCCGAAGCGUGGCGGCACCUGCCGCCGGUGGUAAAAAAGAUCGGAAGAGCACACGUCU [U7G U8C G9U U10G U11A C12U C13U] | 1.36
16 | GGGUCGGCUGAUGAUAAUCGCGUGGAUAUGGCACGCAAGUUUCUACCGGGCACCGUAAAUGUCCGACUGGAGCCGUUCGGGCGGCUAUAAACAGACCUCAGGCCCGAAGCGUGGCGGCACCUGCCGCCGGUGGUAAAAAAGAUCGGAAGAGCACACGUCU [U7G U8C G9U U10G U11A C12U C13G] | 1.23
17 | GGGUCGGCUGCGCAUAAUCGCGUGGAUAUGGCACGCAAGUUUCUACCGGGCACCGUAAAUGUCCGACUGGAGCCGUUCGGGCGGCUAUAAACAGACCUCAGGCCCGAAGCGUGGCGGCACCUGCCGCCGGUGGUAAAAAAGAUCGGAAGAGCACACGUCU [U7G U8C G9U U10G U11C C12G] | 1.38
18 | GGGUCGGCUGCACAUAAUCGCGUGGAUAUGGCACGCAAGUUUCUACCGGGCACCGUAAAUGUCCGACUGGAGCCGUUCGGGCGGCUAUAAACAGACCUCAGGCCCGAAGCGUGGCGGCACCUGCCGCCGGUGGUAAAAAAGAUCGGAAGAGCACACGUCU [U7G U8C G9U U10G U11C C12A] | 2.33

Reference: the RNAGym collection of RNA variant scans (doi:10.1021/acssynbio.7b00057)
